From patent publication US9888679B2, “Protection of progenitor cells and regulation of their differentiation” (Proteobioactives Pty Ltd, priority 2007, dated 2018)
“Also recorded” adds a separate entry of the source.

Experiments:
[1] = test system: ATDC5 cell; test: Kinetics of ATDC5 cell growth over 13 days; assay type: cell-based, murine; settings: rhNC4 (batch PBA-1200P) 5 ug/ml or Insulin 10 ug/ml; 20,000 cells per well at Day 0; FIG. 30
Procedure: FIG. 30. A bar graph of the kinetics of ATDC5 cell growth induced by rhNC4 (batch PBA-1200P) (5 ug/ml) or Insulin (10 ug/ml) relative to control over 13 days. 20,000 cells per well were seeded at Day 0 (Start) with medium changes every 48 hrs. Insulin treated cultures reached confluence on day 6 and PBA-1200P on day 9. Control cultures also reached confluence on day 9 but in contrast to cultures containing insulin or PBA-1200P ceased to undergo replication.

[2] = test system: murine ATDC5 progenitor cells; test: Proteoglycan biosynthesis (35S-GAG) in monolayer cultures, maintenance or differentiation media; assay type: cell-based
Excerpt: (§1) FIG. 21. A bar graph of the concentration dependent effects of rhNC4 (batch PBA-1202P) expressed by K. lactis, in the absence (maintenance media, MM) and presence of insulin (10 micrograms/mL) (differentiation media, DM), on the biosynthesis of Proteoglycans (PGs) as determined by the incorporation of radioactively labelled sulfate into the sulfated glycosaminoglycans (^35S-GAG) of PGs after 3 day culture with Murine ATDC5 progenitor cells. The data was expressed as % change relative to control cultures that contained no rhNC4. P<0.05 was statistically significant relative to control cultures.
FIG. 24. A bar graph of the concentration dependent effects of combinations of rhNC4 (batch PBA-1202P) and Pentosan Polysulfate (PPS) on the biosynthesis of 35S-PGs by monolayer cultures of Murine ATDC5 progenitor cells. Data is expressed relative to control (maintenance media, MM) which was taken as 100%.
as §1, with “31.” for “21.”
FIG. 32. A bar graph of the concentration dependent effects of Pentosan Polysulfate (PPS), in the presence of insulin (10 micrograms/mL), on the biosynthesis of Proteoglycans PGs) as determined by the incorporation of radioactively labelled sulfate into the sulfated glycosaminoglycans (^35S-GAG) of PGs after 3 day culture with Murine ATDC5 progenitor cells. The data was expressed as ^35S-GAG radioactivity as counts per minute (CPM) and decays per minute (DPM) relative to control cultures that contained no PPS. P<0.05 was statistically significant relative to control cultures.
Murine Progenitor cells (cell lines C3H10T1/2 or ATDC5) purchased from RIKEN Cell Bank (Tsukuba, Japan) or human immunoselected Stro-1+ Progenitor cells (Mesoblast Ltd, Melbourne, Australia) were seeded into 50 mL plastic culture flasks containing 1:1 high glucose DMEM/Ham's F-12 medium (Invitrogen) supplemented with 10% FBS (Sigma) and incubated at 37° C., in 5% CO2. […] The experiments were generally terminated after 48 hours incubation when proteoglycan biosynthesis was determined by measuring the incorporation of ^35SO4 into the glycosaminoglycans (^35S-GAGs) as described below.
The data was expressed as % change relative to control cultures that contained no rhNC4. […]

[3] = test system: Murine ATDC5 cell line; test: Proteoglycan biosynthesis (35S-GAG) in pellet cultures; assay type: cell-based; settings: pellet cultures, FIG. 22
Excerpt: FIG. 12. A bar graph of the concentration dependent effects of Pentosan Polysulfate (PPS), on the biosynthesis of Proteoglycans (PGs) as determined by the incorporation of radioactively labelled sulfate into the sulfated glycosaminoglycans (^35S-GAG) of PGs in 6 day pellet cultures of murine progenitor cells (ADTC-5). *=p<0.05 relative to control.
FIG. 22. A bar graph of the concentration dependent effects of rhNC4 (batch PBA-1202P) expressed by K. lactis, in the absence (maintenance media, MM) and presence of insulin (10 micrograms/mL) (differentiation media, DM), on the biosynthesis of Proteoglycans PGs) in pellet cultures of ATDC5 cells. Data is shown as the % change relative to controls taken to be 100%.
Murine Progenitor cells (cell lines C3H10T1/2 or ATDC5) purchased from RIKEN Cell Bank (Tsukuba, Japan) or human immunoselected Stro-1+ Progenitor cells (Mesoblast Ltd, Melbourne, Australia) were seeded in 2 ml screw-capped sterile centrifuge tubes and the total volume made-up to 1 ml with DMEM-High glucose medium containing 10% FBS. Progenitor cells were then centrifuged at 500 g for 10 min in a swing-out rotor at room temperature. The screw caps were loosened and the tubes placed in an incubator at 37° C., in a 5% CO2/95% air moist atmosphere. The pellets generally formed within 24 hours. Medium was changed daily in the first two days, then once every 2-3 days thereafter. On day 5 the medium was removed and to each tube was added 1 ml with DMEM-High glucose medium containing 10% FBS, 5.0 μCi/ml ^35S-H2SO4 and various concentrations of PPS (0, 0.1, 0.5, 1.0, 2.5, 5.0, 10.0, 20.0, μg/ml) (FIG. 12-15) or rhNC4 (0, 0.1, 0.5, 1.0, 2.0 μg/ml) (FIG. 22). Triplicate cultures were used for all concentration of drugs. The screw caps were loosened and the tubes placed in an incubator at 37° C., in a 5% CO2/95% moist air atmosphere […]. On day 6, 200 μl of stock papain solution [2.5 mg/ml papain, 7.9 mg/ml L-Cystein in papain buffer (0.1 M NaAC, 5 mM EDTA, pH6.0)] was added to each tube. The tubes were tightly capped and incubated at 65° C. for 2 hours. After papain digestion, 4 replicates of 200 μl of papain digested solution were separately transferred to a 96-well micro-titre plate (200 μl/well). The remaining solution was used for the DNA fluorometric assays which were undertaken in triplicate as described above. Biosynthesis of ^35S-GAGs was determined as described for the monolayer cultures and the results expressed as ^35-S-GAGs/μg DNA.
Data is shown as the % of controls taken to be 100%.

B1: rhNC4: recombinant human non collagenous NC4 domain of the alpha-1 chain of type IX collagen, expressed by K. lactis (protein, listed as Homo sapiens)
chain: AVKRRPRFPVNSNSNGGNELCPKIRIGQDDLPGFDLISQFQVDKAASRRAIQRVVGSATLQVAYKLGNNVDFRIPTRNLYPSGLPEEYSFLTTFRMTGSTLKKNWNIWQIQDSSGKEQVGIKINGQTQSVVFSYKGLDGSLQTAAFSNLSSLFDSQWHKIMIGVERSSATLFVDCNRIESLPIKPRGPIDIDGFAVLGKLADNPQVSVPFELQWMLIHCDPLRPRRETCHELPARITPSQTTDER
[1]
  day on which cultures reached confluence: 9 days
[2]; maintenance and differentiation media, FIG. 21
  rhNC4 concentration of maximum effects on PG synthesis: 1 microgram/mL
[2]; rhNC4, absence (maintenance media) and presence of insulin (differentiation media), 3 day culture, FIG. 21/31
  PG synthesis: stimulated PG synthesis; also recorded: concentration dependent stimulation of PG synthesis
[3]; maintenance media
  rhNC4 concentration producing the optimum effect on PG synthesis: 0.5 micrograms/mL
[3]; rhNC4
  PG synthesis: stimulatory effect
